The supplement of paper PMC9112550, “Optimization of the antimicrobial peptide Bac7 by deep mutational scanning” (BMC Biology, 2022)

system: Escherichia coli TOP10; assay: shrunken log2 fold change of peptide-encoding DNA abundance (4.5 h post-induction vs induction); higher = less antimicrobial activity (less host growth inhibition); details: time post-induction: 4.5 h; library: site-saturation at positions 5, 18, 19, 20
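Also: peptides expressed intracellularly from a pBAD plasmid library in pooled LB shake-flask culture, induced with 0.3% L-arabinose, DNA abundance read by NGS, three biological replicates, DESeq2 with apeglm shrinkage.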

Row | Sequence | shrunken log2 fold change
1 | RRIRTRPPRLPRPRPRPGWNPRP | -0.039
2 | RRIRWRPPRLPRPRPRPQNTPRP | 0.591
3 | RRIRRRPPRLPRPRPRPILFPRP | -0.026
4 | RRIRRRPPRLPRPRPRPRGTPRP | 0.216
5 | RRIRNRPPRLPRPRPRPCVLPRP | -0.202
6 | RRIRIRPPRLPRPRPRPSGWPRP | 0.037
7 | RRIRQRPPRLPRPRPRPKCFPRP | -0.25
8 | RRIRKRPPRLPRPRPRPHECPRP | 0.286
9 | RRIRYRPPRLPRPRPRPHLKPRP | -0.452
10 | RRIRARPPRLPRPRPRPTINPRP | -0.00779
11 | RRIRCRPPRLPRPRPRPKGCPRP | 0.00419
12 | RRIRHRPPRLPRPRPRPINMPRP | -0.244
13 | RRIRRRPPRLPRPRPRPAEFPRP | 0.0257
14 | RRIRQRPPRLPRPRPRPMHMPRP | -0.369
15 | RRIRWRPPRLPRPRPRPRGRPRP | 0.704
16 | RRIRNRPPRLPRPRPRPVNDPRP | -0.15
17 | RRIRTRPPRLPRPRPRPIPCPRP | -0.0839
18 | RRIRVRPPRLPRPRPRPSMIPRP | -0.375
19 | RRIRWRPPRLPRPRPRPHLKPRP | -0.0706
20 | RRIRVRPPRLPRPRPRPRCNPRP | -0.135
21 | RRIRCRPPRLPRPRPRPAAQPRP | 0.394
22 | RRIRGRPPRLPRPRPRPQAMPRP | -0.0164
23 | RRIRVRPPRLPRPRPRPFWEPRP | -0.0891
24 | RRIRDRPPRLPRPRPRPYYDPRP | -0.621
25 | RRIRVRPPRLPRPRPRPPYCPRP | -0.0177

Row | Sequence | shrunken log2 fold change
26 | RRIRERPPRLPRPRPRPEIPPRP | 0.151
27 | RRIRHRPPRLPRPRPRPSDNPRP | 0.129
28 | RRIRYRPPRLPRPRPRPFMFPRP | -0.861
29 | RRIRDRPPRLPRPRPRPLDYPRP | -0.242
30 | RRIRRRPPRLPRPRPRPGFTPRP | 0.00987
31 | RRIRFRPPRLPRPRPRPWVGPRP | -0.0721
32 | RRIRYRPPRLPRPRPRPTCKPRP | -0.178
33 | RRIRLRPPRLPRPRPRPTLMPRP | 0.0897
34 | RRIRVRPPRLPRPRPRPKGTPRP | -0.171
35 | RRIRIRPPRLPRPRPRPQSWPRP | -0.0752
36 | RRIRPRPPRLPRPRPRPGNKPRP | -0.0476
37 | RRIRKRPPRLPRPRPRPMMYPRP | -0.00208
38 | RRIRARPPRLPRPRPRPDYHPRP | -0.879
39 | RRIRFRPPRLPRPRPRPLHKPRP | -0.179
40 | RRIRSRPPRLPRPRPRPSYVPRP | -0.735
41 | RRIRFRPPRLPRPRPRPKHFPRP | -0.0499
42 | RRIRKRPPRLPRPRPRPFQDPRP | 0.118
43 | RRIRNRPPRLPRPRPRPQIWPRP | 0.0573
44 | RRIRIRPPRLPRPRPRPHNDPRP | -0.55
45 | RRIRQRPPRLPRPRPRPAKAPRP | -0.101
46 | RRIRLRPPRLPRPRPRPVHMPRP | -0.0691
47 | RRIRWRPPRLPRPRPRPKFSPRP | 0.346
48 | RRIRHRPPRLPRPRPRPNMKPRP | -0.855
49 | RRIRERPPRLPRPRPRPWAIPRP | -0.0826
50 | RRIRMRPPRLPRPRPRPCVMPRP | 0.0536

Row | Sequence | shrunken log2 fold change
51 | RRIRYRPPRLPRPRPRPLVKPRP | -1.45
52 | RRIRCRPPRLPRPRPRPVSKPRP | -0.109
53 | RRIRMRPPRLPRPRPRPPFKPRP | 0.173
54 | RRIRGRPPRLPRPRPRPHDQPRP | 0.62
55 | RRIRFRPPRLPRPRPRPFTMPRP | -0.817
56 | RRIRYRPPRLPRPRPRPSIYPRP | -1.09
57 | RRIRFRPPRLPRPRPRPCDIPRP | -0.0737
58 | RRIRRRPPRLPRPRPRPAYEPRP | 0.138
59 | RRIRIRPPRLPRPRPRPGRYPRP | -0.0696
60 | RRIRGRPPRLPRPRPRPNAQPRP | 0.836
61 | RRIRKRPPRLPRPRPRPVMKPRP | 0.535
62 | RRIRARPPRLPRPRPRPGGIPRP | 0.254
63 | RRIRDRPPRLPRPRPRPVLQPRP | 0.0891
64 | RRIRERPPRLPRPRPRPLTLPRP | -0.271
65 | RRIRTRPPRLPRPRPRPIGNPRP | -0.0759
66 | RRIRQRPPRLPRPRPRPLPNPRP | 0.0261
67 | RRIRWRPPRLPRPRPRPNCFPRP | -0.0571
68 | RRIRNRPPRLPRPRPRPMGSPRP | -0.01
69 | RRIRDRPPRLPRPRPRPEAVPRP | 0.0262
70 | RRIRDRPPRLPRPRPRPQPLPRP | 0.194
71 | RRIRSRPPRLPRPRPRPHNHPRP | -0.576
72 | RRIRPRPPRLPRPRPRPTYCPRP | 0.00402
73 | RRIRYRPPRLPRPRPRPAPGPRP | 0.391
74 | RRIRQRPPRLPRPRPRPIYGPRP | -0.00674
75 | RRIRKRPPRLPRPRPRPDECPRP | -0.0821

Row | Sequence | shrunken log2 fold change
76 | RRIRFRPPRLPRPRPRPDQNPRP | -0.203
77 | RRIRARPPRLPRPRPRPGVGPRP | 0.805
78 | RRIRPRPPRLPRPRPRPKAPPRP | 0.171
79 | RRIRWRPPRLPRPRPRPHQNPRP | -0.00311
80 | RRIRPRPPRLPRPRPRPLHQPRP | -0.0461
81 | RRIRPRPPRLPRPRPRPTMRPRP | 0.744
82 | RRIRFRPPRLPRPRPRPHFAPRP | 0.0808
83 | RRIRVRPPRLPRPRPRPLQFPRP | -0.149
84 | RRIRCRPPRLPRPRPRPVFRPRP | -0.128
85 | RRIRARPPRLPRPRPRPLTEPRP | 0.608
86 | RRIRKRPPRLPRPRPRPLQMPRP | -0.0261
87 | RRIRDRPPRLPRPRPRPVVKPRP | 0.0734
88 | RRIRIRPPRLPRPRPRPMQPPRP | -0.0593
89 | RRIRMRPPRLPRPRPRPKPHPRP | 1.19
90 | RRIRPRPPRLPRPRPRPYTHPRP | -1.35
91 | RRIRFRPPRLPRPRPRPCPTPRP | -0.0449
92 | RRIRERPPRLPRPRPRPTDTPRP | -0.415
93 | RRIRNRPPRLPRPRPRPQMVPRP | -0.00674
94 | RRIRKRPPRLPRPRPRPSLSPRP | 0.549
95 | RRIRDRPPRLPRPRPRPNETPRP | -0.023
96 | RRIRTRPPRLPRPRPRPDNMPRP | -0.909
97 | RRIRERPPRLPRPRPRPDMHPRP | -0.0138
98 | RRIRTRPPRLPRPRPRPHIYPRP | -0.00363
99 | RRIRKRPPRLPRPRPRPQTQPRP | 0.26
100 | RRIRPRPPRLPRPRPRPYPNPRP | -0.159

Row | Sequence | shrunken log2 fold change
101 | RRIRVRPPRLPRPRPRPKVKPRP | 0.0531
102 | RRIRGRPPRLPRPRPRPLDVPRP | 0.326
103 | RRIRGRPPRLPRPRPRPPIAPRP | 0.874
104 | RRIRFRPPRLPRPRPRPIPFPRP | 2.3
105 | RRIRLRPPRLPRPRPRPLKGPRP | -0.0279
106 | RRIRTRPPRLPRPRPRPHTRPRP | 0.0252
107 | RRIRIRPPRLPRPRPRPGNEPRP | -0.0358
108 | RRIRYRPPRLPRPRPRPVSPPRP | -0.449
109 | RRIRGRPPRLPRPRPRPWRRPRP | 0.054
110 | RRIRDRPPRLPRPRPRPQTLPRP | 0.0519
111 | RRIRQRPPRLPRPRPRPFGRPRP | 0.037
112 | RRIRFRPPRLPRPRPRPRVLPRP | 0.121
113 | RRIRERPPRLPRPRPRPIKPPRP | -0.363
114 | RRIRPRPPRLPRPRPRPKNFPRP | -0.262
115 | RRIRFRPPRLPRPRPRPWGDPRP | 0.00532
116 | RRIRWRPPRLPRPRPRPGTFPRP | -0.0686
117 | RRIRTRPPRLPRPRPRPGGDPRP | 0.46
118 | RRIRGRPPRLPRPRPRPAMFPRP | 0.455
119 | RRIRWRPPRLPRPRPRPTCKPRP | -0.0078
120 | RRIRGRPPRLPRPRPRPLQHPRP | 1.18
121 | RRIRYRPPRLPRPRPRPYENPRP | 0.0075
122 | RRIRMRPPRLPRPRPRPLVKPRP | -0.174
123 | RRIRIRPPRLPRPRPRPHISPRP | -0.0489
124 | RRIRPRPPRLPRPRPRPMGCPRP | -0.0927
125 | RRIRCRPPRLPRPRPRPHRKPRP | -0.0176

Row | Sequence | shrunken log2 fold change
126 | RRIRYRPPRLPRPRPRPCRCPRP | -0.0894
127 | RRIRGRPPRLPRPRPRPYNEPRP | -0.329
128 | RRIRARPPRLPRPRPRPCHPPRP | 0.194
129 | RRIRCRPPRLPRPRPRPACGPRP | 0.323
130 | RRIRSRPPRLPRPRPRPLFKPRP | -0.127
131 | RRIRQRPPRLPRPRPRPYGKPRP | -0.217
132 | RRIRWRPPRLPRPRPRPRQAPRP | 0.475
133 | RRIRQRPPRLPRPRPRPWYHPRP | -0.32
134 | RRIRERPPRLPRPRPRPYAFPRP | -0.961
135 | RRIRARPPRLPRPRPRPRVFPRP | 0.704
136 | RRIRIRPPRLPRPRPRPVRDPRP | 0.158
137 | RRIRYRPPRLPRPRPRPMTQPRP | -0.0104
138 | RRIRWRPPRLPRPRPRPDWHPRP | -0.0337
139 | RRIRDRPPRLPRPRPRPNVDPRP | 0.0276
140 | RRIRHRPPRLPRPRPRPGMCPRP | -0.493
141 | RRIRQRPPRLPRPRPRPCMRPRP | 0.0607
142 | RRIRLRPPRLPRPRPRPSHHPRP | -0.319
143 | RRIRVRPPRLPRPRPRPDDPPRP | 0.359
144 | RRIRTRPPRLPRPRPRPFVFPRP | -0.295
145 | RRIRIRPPRLPRPRPRPIKTPRP | -0.0553
146 | RRIRKRPPRLPRPRPRPMCDPRP | -0.0708
147 | RRIRGRPPRLPRPRPRPFVYPRP | 0.077
148 | RRIRERPPRLPRPRPRPLICPRP | -0.74
149 | RRIRQRPPRLPRPRPRPFQDPRP | -0.195
150 | RRIRVRPPRLPRPRPRPHRGPRP | -0.0736
